Test results: article PMC8208582, “Crosstalk between H2A variant-specific modifications impacts vital cell functions” (PLoS Genetics, 2021)

B1: recombinant H2A.W.6 (natural protein, Arabidopsis, UniProt Q9FJE8 1-150, looked up)
chain: MESTGKVKKAFGGRKPPGAPKTKSVSKSMKAGLQFPVGRITRFLKKGRYAQRLGGGAPVYMAAVLEYLAAEVLELAGNAARDNKKSRIIPRHLLLAIRNDEELGKLLSGVTIAHGGVLPNINSVLLPKKSATKPAEEKATKSPVKSPKKA
notes: histone H2A.W.6 of Arabidopsis; source: E. coli BL21 (DE3), purified (Ni-NTA under denaturing conditions, thrombin, SP sepharose)
B2: recombinant H2A.W.7 (natural protein, Arabidopsis, UniProt Q94F49 1-150, looked up)
chain: MESSQATTKPTRGAGGRKGGDRKKSVSKSVKAGLQFPVGRIARYLKKGRYALRYGSGAPVYLAAVLEYLAAEVLELAGNAARDNKKNRINPRHLCLAIRNDEELGRLLHGVTIASGGVLPNINPVLLPKKSTASSSQAEKASATKSPKKA
notes: histone H2A.W.7 of Arabidopsis; source: E. coli BL21 (DE3), purified (Ni-NTA under denaturing conditions, thrombin, SP sepharose)
B3: recombinant H2A.13 (natural protein, Arabidopsis, UniProt Q9LHQ5 1-132, looked up)
chain: MAGRGKTLGSGVAKKSTSRSSKAGLQFPVGRIARFLKNGKYATRVGAGAPVYLAAVLEYLAAEVLELAGNAARDNKKTRIVPRHIQLAVRNDEELSKLLGDVTIANGGVMPNIHSLLLPKKAGASKPSADED
notes: histone H2A.13 of Arabidopsis; source: E. coli BL21 (DE3), purified (Ni-NTA under denaturing conditions, thrombin, SP sepharose)

Biological target: T1, recombinant H2B.9 (Arabidopsis, UniProt O23629 1-150)
T1 construct: histone H2B.9 (HTB9) of Arabidopsis; source: E. coli BL21 (DE3), purified (Ni-NTA under denaturing conditions, thrombin, SP sepharose)
Experiment: SEC; freeze-dried histones mixed at a 1:1 molar ratio in 7 M guanidine hydrochloride, step-wise dialysed from 2 M to 0.1 M NaCl refolding buffer, Superdex200 in 0.1 M NaCl refolding buffer; peak fractions on SDS-PAGE
Conditions: both partners purified

T1 sequence (O23629 whole entry): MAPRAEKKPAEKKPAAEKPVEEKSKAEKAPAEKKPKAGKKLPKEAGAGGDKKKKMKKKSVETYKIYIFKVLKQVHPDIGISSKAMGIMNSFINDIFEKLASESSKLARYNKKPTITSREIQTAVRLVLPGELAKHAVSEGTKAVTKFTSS

Binder	binding result
B1	binds
B2	binds
B3	binds
